Assay results reported in patent publication US20090143319, “Transcription factor decoy” (AnGesMG, Inc., published 2009).

molecular target: T1, NF-kB p65 (RelA) (UniProt Q04206 Q04206:1-551); assay: competition; settings: protein: extract; tags: native, Jurkat nuclear extract (TransAM NF-kB p65 kit, Active Motif)
Protocol: (§1) Complete Lysis Buffer, Complete Binding Buffer, 1× Wash Buffer and 1× Antibody Binding Buffer are prepared. […] Jurkat nuclear extract was diluted with Complete Lysis Buffer to a concentration of 125 μg protein/mL.
(§2) To each of the wells in a plate included in the kit, on which a NF-κB-binding nucleic acid is preliminarily immobilized, 30 μL each of the NF-κB Decoy Oligonucleotide Dilution prepared in (1) described above is added. To the wells of the blank and control, 30 μL each of Complete Binding Buffer was added. Then 20 μL each of the above-described Jurkat nuclear extract was added to each well. To each of the wells of the blank and control, 20 μL each of Complete Lysis Buffer was added. After shaking the plate at room temperature for 1 hour, each well was washed with 200 μL of 1× Wash Buffer 3 times, and 100 μL each of rabbit anti-NF-κB p65 antibody 1000-fold diluted with 1× Antibody Binding Buffer was added, followed by shaking the plate at room temperature for 1 hour. Thereafter, each well was washed with 200 μL of 1× Wash Buffer 3 times, and 100 μL each of HRP-labeled anti-rabbit IgG antibody 1000-fold diluted with 1× Antibody Binding Buffer was added to each well, followed by shaking the plate at room temperature for 1 hour. Thereafter, each well was washed with 200 μL each of 1× Wash Buffer 4 times, and 100 μL each of Developing Solution was added, followed by allowing coloring reaction in a dark room for 5 minutes. After the reaction, the coloring reaction was stopped by adding 100 μL each of Stop Solution. […] The percentage of the absorbance of each NF-κB decoy oligonucleotide at each of the concentrations was calculated taking the ratio of absorbances of the well of control as 100, and IC₅₀ of each decoy oligonucleotide was calculated from the approximate curve obtained by plotting the mean values of the above-mentioned percent absorbance.

T1 sequence (Q04206 whole entry, one chain of several): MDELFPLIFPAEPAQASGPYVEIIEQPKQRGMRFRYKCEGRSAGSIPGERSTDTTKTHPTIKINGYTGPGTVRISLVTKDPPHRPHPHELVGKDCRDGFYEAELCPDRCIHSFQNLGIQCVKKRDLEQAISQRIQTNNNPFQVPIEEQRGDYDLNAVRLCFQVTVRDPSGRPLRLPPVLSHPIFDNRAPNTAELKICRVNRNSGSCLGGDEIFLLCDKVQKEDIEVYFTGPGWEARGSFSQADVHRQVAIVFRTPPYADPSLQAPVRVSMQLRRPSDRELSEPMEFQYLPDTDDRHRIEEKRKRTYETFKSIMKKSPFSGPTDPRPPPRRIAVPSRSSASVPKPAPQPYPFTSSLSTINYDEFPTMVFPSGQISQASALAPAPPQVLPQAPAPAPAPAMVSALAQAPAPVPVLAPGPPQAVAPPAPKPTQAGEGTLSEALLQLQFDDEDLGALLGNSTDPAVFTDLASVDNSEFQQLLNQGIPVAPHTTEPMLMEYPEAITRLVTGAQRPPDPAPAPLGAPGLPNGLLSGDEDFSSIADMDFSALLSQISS

Binder | binding signal
SEQ-19 (dsDNA) DNA 1: CCTTGAGGGGATTTCCCC DNA 2: GGGGAAATCCCCTCAAGG | 0.26 IC50 ratio to SEQ-I
SEQ-38 (dsDNA, PS (*): TTG*A*GGGGATTT*C*CCC / antisense 5'-GGGGAAA*T*C*CCCTCAA) DNA 1: TTGAGGGGATTTCCCC DNA 2: GGGGAAATCCCCTCAA | 0.011 IC50 ratio to SEQ-x
SEQ-18 (dsDNA) DNA 1: CTTGAGGGGATTTCCCC DNA 2: GGGGAAATCCCCTCAAG | 0.28 IC50 ratio to SEQ-I
SEQ-23 (dsDNA) DNA 1: TGAGGGGATTTCCCCC DNA 2: GGGGGAAATCCCCTCA | 0.69 IC50 ratio to SEQ-I
SEQ-K (dsDNA) DNA 1: AGTTGAAGGGATTTCCCTAGGC DNA 2: GCCTAGGGAAATCCCTTCAACT | > 1.48 IC50 ratio to SEQ-x
SEQ-24 (dsDNA) DNA 1: TTGAGGGGATTTCCCCC DNA 2: GGGGGAAATCCCCTCAA | 0.52 IC50 ratio to SEQ-I
SEQ-49 (dsDNA, PS (*): C*C*TTGAAGGGACTTTCCT*C*C / 3'-G*G*…*G*A*AAGGA*G*G) DNA 1: CCTTGAAGGGACTTTCCTCC DNA 2: GGAGGAAAGTCCCTTCAAGG | 0.19 IC50 ratio to SEQ-x
SEQ-L (dsDNA) DNA 1: CCTTGAGGGGACTTTCCCCC DNA 2: GGGGGAAAGTCCCCTCAAGG | 0.66 IC50 ratio to SEQ-x
SEQ-25 (dsDNA) DNA 1: CTTGAGGGGATTTCCCCC DNA 2: GGGGGAAATCCCCTCAAG | 0.41 IC50 ratio to SEQ-I
SEQ-28 (dsDNA) DNA 1: AGGGGATTTCCCCCC DNA 2: GGGGGGAAATCCCCT | > 2.2 IC50 ratio to SEQ-I
SEQ-29 (dsDNA) DNA 1: GAGGGGATTTCCCCCC DNA 2: GGGGGGAAATCCCCTC | 2.17 IC50 ratio to SEQ-I
SEQ-M (dsDNA) DNA 1: ACCAAGGGATTTCCCTGTCCCAC DNA 2: GTGGGACAGGGAAATCCCTTGGT | > 1.48 IC50 ratio to SEQ-x
SEQ-46 (dsDNA, PS at 2 bonds at each end of both strands) DNA 1: CCTTGAAGGGACTTTCCTCC DNA 2: GGAGGAAAGTCCCTTCAAGG | > 1.67 IC50 ratio to SEQ-x
SEQ-30 (dsDNA) DNA 1: TGAGGGGATTTCCCCCC DNA 2: GGGGGGAAATCCCCTCA | 1.24 IC50 ratio to SEQ-I
SEQ-48 (dsDNA, PS (*): C*C*TTGAAGGGACTTTCCT*C*C / 3'-G*G*AACTTCC*C*T*GAAAGGA*G*G) DNA 1: CCTTGAAGGGACTTTCCTCC DNA 2: GGAGGAAAGTCCCTTCAAGG | 0.2 IC50 ratio to SEQ-x
SEQ-36 (dsDNA, PS (*): T*TG*A*GGGGATTT*C*CCC / antisense 5'-G*GGGAAA*T*C*CCCTCAA) DNA 1: TTGAGGGGATTTCCCC DNA 2: GGGGAAATCCCCTCAA | 0.012 IC50 ratio to SEQ-x
SEQ-20 (dsDNA) DNA 1: GGGGATTTCCCCC DNA 2: GGGGGAAATCCCC | > 3.45 IC50 ratio to SEQ-I
SEQ-22 (dsDNA) DNA 1: GAGGGGATTTCCCCC DNA 2: GGGGGAAATCCCCTC | 1.09 IC50 ratio to SEQ-I

Binder | binding signal
SEQ-26 (dsDNA) DNA 1: CCTTGAGGGGATTTCCCCC DNA 2: GGGGGAAATCCCCTCAAGG | 0.43 IC50 ratio to SEQ-I
SEQ-33 (dsDNA, PS (*): G*A*GGGGATTT*C*CCC / antisense 5'-GGGGAAA*T*C*CCCTC) DNA 1: GAGGGGATTTCCCC DNA 2: GGGGAAATCCCCTC | 0.021 IC50 ratio to SEQ-x
SEQ-34 (dsDNA, PS (*): G*A*GGGGATTT*C*CCC / antisense 5'-G*GGGAAA*T*C*CCCTC) DNA 1: GAGGGGATTTCCCC DNA 2: GGGGAAATCCCCTC | 0.014 IC50 ratio to SEQ-x
SEQ-37 (dsDNA, PS (*): T*T*G*A*GGGGATTT*C*CCC / antisense 5'-G*G*GGAAA*T*C*CCCTCAA) DNA 1: TTGAGGGGATTTCCCC DNA 2: GGGGAAATCCCCTCAA | 0.015 IC50 ratio to SEQ-x
SEQ-14 (dsDNA) DNA 1: AGGGGATTTCCCC DNA 2: GGGGAAATCCCCT | 1.39 IC50 ratio to SEQ-I
SEQ-21 (dsDNA) DNA 1: AGGGGATTTCCCCC DNA 2: GGGGGAAATCCCCT | 2.07 IC50 ratio to SEQ-I
SEQ-13 (dsDNA) DNA 1: GGGGATTTCCCC DNA 2: GGGGAAATCCCC | > 2.87 IC50 ratio to SEQ-I
SEQ-16 (dsDNA) DNA 1: TGAGGGGATTTCCCC DNA 2: GGGGAAATCCCCTCA | 0.42 IC50 ratio to SEQ-I
SEQ-35 (dsDNA, PS (*): G*A*GGGGATTT*C*CCC / antisense 3'-CTCCC*C*T*AAAG*G*GGG (so in the source)) DNA 1: GAGGGGATTTCCCC DNA 2: GGGGAAATCCCCTC | 0.015 IC50 ratio to SEQ-x
SEQ-31 (dsDNA) DNA 1: TTGAGGGGATTTCCCCCC DNA 2: GGGGGGAAATCCCCTCAA | 0.84 IC50 ratio to SEQ-I
SEQ-17 (dsDNA) DNA 1: TTGAGGGGATTTCCCC DNA 2: GGGGAAATCCCCTCAA | 0.3 IC50 ratio to SEQ-I
SEQ-32 (dsDNA) DNA 1: CTTGAGGGGATTTCCCCCC DNA 2: GGGGGGAAATCCCCTCAAG | 0.76 IC50 ratio to SEQ-I
SEQ-9 (dsDNA, PS (*): C*C*TTG*A*GGGGATTT*C*CCCCC / antisense 5'-G*G*GGGGAAA*T*C*CCCTCAAGG) DNA 1: CCTTGAGGGGATTTCCCCCC DNA 2: GGGGGGAAATCCCCTCAAGG | 0.02 IC50 ratio to SEQ-x
SEQ-47 (dsDNA, PS (*): C*C*TTGAAGGGACTTTCCT*C*C / 3'-G*G*AAC*T*T*…*G*G) DNA 1: CCTTGAAGGGACTTTCCTCC DNA 2: GGAGGAAAGTCCCTTCAAGG | 0.72 IC50 ratio to SEQ-x
SEQ-27 (dsDNA) DNA 1: GGGGATTTCCCCCC DNA 2: GGGGGGAAATCCCC | > 2.2 IC50 ratio to SEQ-I
SEQ-15 (dsDNA) DNA 1: GAGGGGATTTCCCC DNA 2: GGGGAAATCCCCTC | 0.61 IC50 ratio to SEQ-I
SEQ-40 (mixed, LNA/RNA marked by bold/italic, positions not recoverable from text) DNA: CCTTGAGGGGATTTCCCCCC mixed: GGGGGGAAATCCCCUCAAGG | > 2.93 IC50 ratio to SEQ-x

molecular target: T1, NF-kB p65 (RelA); assay: competition; 0.60 relative to SEQ-X-PS (Table 7); settings: protein: extract; tags: native, Jurkat nuclear extract (TransAM NF-kB p65 kit, Active Motif)
Protocol: as §1
as §2, with “hour.” for “hour. Thereafter, each well was washed with 200 μL of 1× Wash Buffer 3 times, and 100 μL each of HRP-labeled anti-rabbit IgG antibody 1000-fold diluted with 1× Antibody Binding Buffer was added to each well, followed by shaking the plate at room temperature for 1 hour. Thereafter, each well was washed with 200 μL each of 1× Wash Buffer 4 times, and 100 μL each of Developing Solution was added, followed by allowing coloring reaction in a dark room for 5 minutes. After the reaction, the coloring reaction was stopped by adding 100 μL each of Stop Solution.”

Binder | binding signal
SEQ-44 (dsDNA, PS (*): C*C*TTGAAGGGATTTCCCT*C*C / 3'-G*G*AA*C*T*…*G*G) DNA 1: CCTTGAAGGGATTTCCCTCC DNA 2: GGAGGGAAATCCCTTCAAGG | > 1.67 IC50 ratio to SEQ-x

molecular target: T1, NF-kB p65 (RelA); assay: competition; 0.16 relative to SEQ-X-PS (Table 7); settings: protein: extract; tags: native, Jurkat nuclear extract (TransAM NF-kB p65 kit, Active Motif)
Protocol: as §1
as §2, with “hour.” for “hour. Thereafter, each well was washed with 200 μL of 1× Wash Buffer 3 times, and 100 μL each of HRP-labeled anti-rabbit IgG antibody 1000-fold diluted with 1× Antibody Binding Buffer was added to each well, followed by shaking the plate at room temperature for 1 hour. Thereafter, each well was washed with 200 μL each of 1× Wash Buffer 4 times, and 100 μL each of Developing Solution was added, followed by allowing coloring reaction in a dark room for 5 minutes. After the reaction, the coloring reaction was stopped by adding 100 μL each of Stop Solution.”

Binder | binding signal
SEQ-45 (dsDNA, PS (*): C*C*TTGAAGGGATTTCCCT*C*C / 3'-G*G*…*A*A*GGGA*G*G) DNA 1: CCTTGAAGGGATTTCCCTCC DNA 2: GGAGGGAAATCCCTTCAAGG | 1.43 IC50 ratio to SEQ-x
